Assays:
hippocampal neurons = assay: Fos expression in hippocampal neurons; format: cell-based, mouse; settings: 1 nM C-Ag15 with 50 pM C-Ag95z8
Experimental: Mouse cortical cultures were prepared from newborn or 1-d-old ICR strain mice (Harlan) as described previously (Hilgenberg et al., 1999). For the first 24 h after plating, cells were maintained in neural basal medium (NBM) plus B27 supplements (Invitrogen), and in nonneuronal cell-conditioned NBM (cNBM) plus B27 thereafter, at 37° C. in humidified 5% CO2 atmosphere. To further reduce proliferation of nonneuronal cells, cultures on glass coverslips used for histology were treated with 5 μM 5-fluoro-2-deoxyuridine (Sigma-Aldrich) 3-4 d after plating. Hippocampal and cerebellar cultures were prepared in a similar manner. Experiments were performed on 10-14-d-old cultures. Agrin-deficient neuron cultures were prepared from cortices of embryonic d 18-19 fetuses resulting from matings between mice heterozygous for a mutation in the agrin gene (Gautam et al., 1996). Cultures were prepared and genotyped as described previously (Li et al., 1999), and were maintained as above.
Fos expression in cortical cultures was measured by in situ enzyme-linked immunoassay (Hilgenberg et al., 1999). In brief, 11-14-d-old neuronal cultures were treated for 10 min with agrin or other agent diluted in NBM or PBS, then washed in cNBM and returned to the incubator for 2 h. […] The level of Fos expression was determined by monitoring conversion of p-nitrophenyl phosphate to a soluble yellow reaction product at 405 nm. […]

[1] = molecular target: rat α3 subunit of the Na+/K+-ATPase (Rattus norvegicus, UniProt P06687); assay: Na+ imaging of non-neuronal cells transfected with pRcα3; format: cell-based

B1: C-Ag15: 15-kD COOH-terminal fragment of agrin created by deleting 37 amino acids from the NH2 terminus of C-Ag20, SEQ. ID NO. 3 (protein)
chain: MDPWIGKAAERADYMALAIVDGHLQLSYDLASQPVVLRSTVKVNTNRWLRVRAHREHREGSLQVGNEAPVTSSSPLGATQLDTDGALWLGGLQKLPVGQPLPKAYGTGFVGCLRNVVGHRQLHLLEDAVTKPELRPCPTLNSKLGPEQKLISEEDLNSAVDHHHHHH
modifications: Synthetically produced sequence
Hippocampal neurons
  effect on C-Ag95z8-induced Fos expression: completely inhibited
[1]
  antagonism of active agrin fragments: effective antagonist
  intracellular Na+ in cells expressing the α3 subunit: unaffected
